From PMC10388305, “Synthesis and Evaluation of a Monomethyl Auristatin E—Integrin αvβ6 Binding Peptide–Drug Conjugate for Tumor Targeted Drug Delivery” (Journal of Medicinal Chemistry, 2023)
Like-named read-outs stand apart in the source and are kept apart here.

Test: Blocking biodistribution, BxPC-3 model
Assay type: in vivo, mice
Conditions: female, athymic nude, mouse, iv, total radioactivity, 4 h p.i., DOTA-2 (50 mg/kg, 205 nmol) i.v. 10 min prior, γ-counter, mean ± SD, n = 2
Experimental: Aliquots of the formulated [^64Cu]PDC-1 in isotonic 0.9% saline (4.81–5.74 MBq, 1.7–2.1 μg, 0.26–0.31 nmol, 100 μL, pH 7.2) were injected i.v. as described above. Following the conscious uptake period, the mice were anesthetized (5% isoflurane), euthanized, and dissected (n ≥ 3/model/time point [4, 24, and 48 h]; the 48 h time point also included the imaging animals sacrificed after the PET scans). Tissues were collected, washed, weighed, and radioactivity measured in a γ-counter. Calibrated, decay-corrected radioactivity was expressed as the percentage of injected dose per gram of tissue (% ID/g). Data are reported as mean ± SD. The mean weights and standard deviation of the DX3puroβ6/DX3puro paired tumor model biodistribution mice were 24.3 ± 1.4 g at 4 h, 28.2 ± 2.9 g at 24 h, and 27.7 ± 2.6 g at 48 h. The mean weights and standard deviation of the BxPC-3 tumor model biodistribution mice were 25.1 ± 1.9 g at 4 h, 27.0 ± 1.1 g at 24 h and 27.1 ± 3.2 g at 48 h. For in vivo blocking studies, DOTA-2 (50 mg/kg, 205 nmol, 1.4 mg in 100 μL 0.9% saline) was injected i.v. into two animals/tumor model 10 min prior to [^64Cu]PDC-1. The animals were sacrificed after 4 h, tissues collected, washed, weighed, and radioactivity measured in a γ-counter. The mean weights and standard deviation for the blocking mice were 24.6 ± 0 and 27.9 ± 0.3 g for the DX3puroβ6/DX3puro paired and BxPC-3 tumor models, respectively.
Blocking biodistribution data of [64Cu]PDC-1 in paired DX3puroβ6/DX3puro and BxPC-3 tumor models.
Tumor Model DX3puroβ6/DX3puro BxPC-3
Table S6. Blocking biodistribution data of [ 64Cu]PDC-1 in paired DX3puroβ6/DX3puro and BxPC-3 tumor
models. Tissue uptake is expressed as the mean of the percentage of injected dose per gram of tissue ±
SD (n = 2/model, n/a = not applicable. P = 0.53 for DX3puroβ6 vs. DX3puro; P = 0.52 for BxPC-3 vs.

Compound: CC[C@H](C)[C@@H]([C@@H](CC(=O)N1CCC[C@H]1[C@H](OC)[C@@H](C)C(=O)N[C@H](C)[C@@H](O)c1ccccc1)OC)N(C)C(=O)[C@@H](NC(=O)[C@H](C(C)C)N(C)C(=O)OCc1ccc(NC(=O)[C@H](CCCNC(N)=O)NC(=O)[C@@H](NC(=O)CCOCCOCCNC(=O)CCN2C(=O)CC(SC[C@H](NC(=O)CN3CCN(CC(=O)O)CCN(CC(=O)O)CCN(CC(=O)O)CC3)C(=O)NCCOCCOCCOCCOCCOCCOCCOCCOCCOCCOCCOCCOCCOCCOCCOCCOCCOCCOCCOCCOCCOCCOCCOCCOCCOCCOCCOCCOCCC(=O)N[C@@H](CC(N)=O)C(=O)N[C@@H](C)C(=O)N[C@H](C(=O)N3CCC[C@H]3C(=O)N[C@@H](CC(N)=O)C(=O)N[C@@H](CC(C)C)C(=O)N[C@@H](CCCNC(=N)N)C(=O)NCC(=O)N[C@@H](CC(=O)O)C(=O)N[C@@H](CC(C)C)C(=O)N[C@@H](CCC(N)=O)C(=O)N[C@H](C(=O)N[C@@H](CC(C)C)C(=O)N[C@@H](C)C(=O)N[C@@H](CCC(N)=O)C(=O)N[C@@H](CCCNC(=N)N)C(=O)N[C@H](C(=O)N[C@@H](C)C(=O)N[C@@H](CCCNC(=N)N)C(=O)N[C@H](C(=O)NCCOCCOCCOCCOCCOCCOCCOCCOCCOCCOCCOCCOCCOCCOCCOCCOCCOCCOCCOCCOCCOCCOCCOCCOCCOCCOCCOCCOCCC(N)=O)[C@@H](C)O)C(C)C)C(C)C)C(C)C)C2=O)C(C)C)cc1)C(C)C (stereo partly shown) [[^64Cu]PDC-1, metal not drawn]
- tissue uptake at 4 h (BxPC-3 (αvβ6 +) tumor, read-out: Tumor (αvβ6 +) BxPC-3 uptake, blocked): 0.61 ± 0.05 %ID/g
- tissue uptake at 4 h (blood, read-out: Blood uptake, blocked): 0.1 ± 0.02 %ID/g
- tissue uptake at 4 h (bone, read-out: Bone uptake, blocked): 0.14 ± 0.03 %ID/g
- tissue uptake at 4 h (brain, read-out: Brain uptake, blocked): 0.01 ± 0.01 %ID/g
- tissue uptake at 4 h (gall bladder, read-out: Gall Bladder uptake, blocked): 0.94 ± 0.35 %ID/g
- tissue uptake at 4 h (heart, read-out: Heart uptake, blocked): 0.21 ± 0.06 %ID/g
- tissue uptake at 4 h (kidney, read-out: Kidney uptake, blocked): 25.7 ± 2.55 %ID/g
- tissue uptake at 4 h (large intestines, read-out: Large Intestines uptake, blocked): 0.47 ± 0.08 %ID/g
- tissue uptake at 4 h (liver, read-out: Liver uptake, blocked): 1.01 ± 0.16 %ID/g
- tissue uptake at 4 h (lung, read-out: Lung uptake, blocked): 0.51 ± 0.16 %ID/g
- tissue uptake at 4 h (muscle, read-out: Muscle uptake, blocked): 0.07 ± 0.01 %ID/g
- tissue uptake at 4 h (pancreas, read-out: Pancreas uptake, blocked): 0.12 ± 0.01 %ID/g
- tissue uptake at 4 h (skin, read-out: Skin uptake, blocked): 0.31 ± 0.02 %ID/g
- tissue uptake at 4 h (small intestines, read-out: Small Intestines uptake, blocked): 0.51 ± 0.09 %ID/g
- tissue uptake at 4 h (spleen, read-out: Spleen uptake, blocked): 0.22 ± 0.03 %ID/g
- tissue uptake at 4 h (stomach, read-out: Stomach uptake, blocked): 0.38 ± 0.04 %ID/g
